Source: paper PMC5561266

Molecular target: McpB ligand-binding domain (LBD) of Ralstonia pseudosolanacearum Ps29 (Ralstonia pseudosolanacearum Ps29)
Assay: AUC

McpB ligand-binding domain (LBD) of Ralstonia pseudosolanacearum Ps29 (domain or fragment)
stoichiometry N: 2
